Experimental data: patent US20180016346A1 (Kyowa Kirin, published 2018)

What was measured:
[1] = biological target: T1, FLAG-hPSMA, extracellular domain protein of hPSMA with a FLAG-tag at the N-terminus (human, UniProt Q04609 44-750); test: phage ELISA, scFv phage clone on immobilized FLAG-PSMA
T1 construct: also called FLAG-PSMA; soluble hPSMA antigen
Procedure: The concentrated phage was monocloned and clones having the affinity to FLAG-PSMA were selected by ELISA. In ELISA, MAXISORP STARTUBE (manufactured by NUNC) in which the FLAG-PSMA of Example 5 described below was immobilized thereon, and a site not bound by FLAG-PSMA was blocked by using SuperBlock Blockig Buffer (manufactured by Thermo Fisher Scientific Inc.) was used.
Each phage clone was added to each well and allowed to react at room temperature for 30 minutes, and then each well was washed three times with PBS containing 0.1% Tween 20 (hereinafter referred to as PBS-T). Subsequently, a solution in which horseradish peroxidase-labeled anti-M13 antibody (manufactured by GE Healthcare) was diluted 5000 times with PBS-T containing 10% Block Ace (manufactured by Dainippon Pharma Co., Ltd.) was added to each well by 50 μL and incubated at room temperature for 30 minutes.

[2] = biological target: T2, human prostate specific membrane antigen (hPSMA), membrane form on cells (human, UniProt Q04609 1-750); test: flow cytometry on hPSMA/PC3 cells against PC3 cells (no data disclosed)
T2 construct: endogenous on LNCaP clone FGC cells; also called membrane hPSMA
T2 sequence (Q04609 whole entry): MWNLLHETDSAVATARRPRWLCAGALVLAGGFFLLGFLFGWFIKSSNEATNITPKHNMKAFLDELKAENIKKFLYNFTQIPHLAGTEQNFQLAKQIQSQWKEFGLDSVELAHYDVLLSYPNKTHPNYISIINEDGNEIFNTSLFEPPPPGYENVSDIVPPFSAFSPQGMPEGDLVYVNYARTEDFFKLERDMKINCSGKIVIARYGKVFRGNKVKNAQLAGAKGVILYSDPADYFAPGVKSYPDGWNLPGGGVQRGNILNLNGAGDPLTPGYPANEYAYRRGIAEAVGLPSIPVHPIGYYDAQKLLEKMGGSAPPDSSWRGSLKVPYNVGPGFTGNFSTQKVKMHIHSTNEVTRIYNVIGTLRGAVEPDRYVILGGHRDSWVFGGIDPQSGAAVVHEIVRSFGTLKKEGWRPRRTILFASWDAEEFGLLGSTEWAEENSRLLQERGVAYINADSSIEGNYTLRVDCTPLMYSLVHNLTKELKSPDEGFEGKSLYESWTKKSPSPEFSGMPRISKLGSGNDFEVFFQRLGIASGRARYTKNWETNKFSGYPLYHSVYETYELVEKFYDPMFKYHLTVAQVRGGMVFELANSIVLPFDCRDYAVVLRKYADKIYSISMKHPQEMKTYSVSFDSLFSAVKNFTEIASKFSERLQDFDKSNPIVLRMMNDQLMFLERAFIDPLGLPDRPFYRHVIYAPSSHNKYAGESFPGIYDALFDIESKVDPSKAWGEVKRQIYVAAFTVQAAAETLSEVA

T1 sequence (Q04609 other isoform, or with tags, fused parts or gaps): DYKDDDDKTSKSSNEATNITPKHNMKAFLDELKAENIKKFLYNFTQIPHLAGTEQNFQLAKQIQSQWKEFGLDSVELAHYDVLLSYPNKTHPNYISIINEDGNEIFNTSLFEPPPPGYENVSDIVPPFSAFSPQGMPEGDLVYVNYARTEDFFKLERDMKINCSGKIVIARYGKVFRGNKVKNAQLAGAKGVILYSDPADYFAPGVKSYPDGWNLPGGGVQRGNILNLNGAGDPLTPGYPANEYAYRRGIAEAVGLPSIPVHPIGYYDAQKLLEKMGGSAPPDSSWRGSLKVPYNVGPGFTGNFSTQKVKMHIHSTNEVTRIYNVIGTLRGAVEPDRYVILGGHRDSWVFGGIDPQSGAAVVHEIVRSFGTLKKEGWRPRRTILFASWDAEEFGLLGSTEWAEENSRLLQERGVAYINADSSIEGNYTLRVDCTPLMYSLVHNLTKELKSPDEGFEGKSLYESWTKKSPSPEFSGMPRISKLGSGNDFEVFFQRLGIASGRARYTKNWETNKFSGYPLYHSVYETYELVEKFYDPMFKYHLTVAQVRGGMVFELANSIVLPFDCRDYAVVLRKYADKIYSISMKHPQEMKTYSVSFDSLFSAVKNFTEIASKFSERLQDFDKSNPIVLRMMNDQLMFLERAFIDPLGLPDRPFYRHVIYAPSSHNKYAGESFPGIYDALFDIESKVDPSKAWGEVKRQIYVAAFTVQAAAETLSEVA

| Binder | binding result [1] | binding result [2] |
| --- | --- | --- |
| PI134 phage clone (scFv displayed on M13 phage) (scFv, V domains shown, Tested as an scFv on M13 phage (phagemid pCANTAB 5E)) VH: QVQLVQSGAEVKKPGASVKVSCKASGYTFTTYDINWVRQATGQGLEWMGWMNPNNGYTGYAQKFQGRVTMTRNTSISTAYMELSSLRSEDTAVYYCARTNWVYWYFDLWGRGTLVTVSS VL: EIVLTQSPATLSLSPGERATLSCRASQSVSSFLAWYQQKPGQAPRLLIYDASNRATGIPARFSGSGSGTDFTLTISSLEPEDFAVYYCQQRSNWPLTFGPGTKVDIKR | binds | – |
| PI105 phage clone (scFv displayed on M13 phage) (scFv, V domains shown, Tested as an scFv on M13 phage (phagemid pCANTAB 5E); not shown: scFv linker, domain order, tag and M13 coat-protein fusion of phagemid pCANTAB 5E; copies: 1 + 1) VH: EVQLVQSGAEVKKPGASVKVSCKASGYTFTTYDINWVRQATGQGLEWLGWMNPNNGYTGYAQKFQGRVTMTRNTSIGTAYMELNSLRSEDTAVYYCARTNWVYWYFDLWGRGTLVTVSS VL: EIVLTQSPATLSLSPGERATLSCRASQSVSSFLAWYQQKPGQAPRLLIYDASNRATGIPARFSGSGSGTDFTLTISSLEPEDFAVYYCQQRSNWPLTFGPGTKVDIK | binds | – |
| PN170 phage clone (scFv displayed on M13 phage) (scFv, V domains shown, Tested as an scFv on M13 phage (phagemid pCANTAB 5E)) VH: EVQLVQSGAEVKKPGASVKVSCKASGYTLTSYDINWVRQATGQGLEWMGWMNPNSGYTGYAQKFQDRVTMTRNTAINTAYMELSSLRSEDTAVYYCAREAGYDGIWYFDLWGRGTLVTVSS VL: EIVLTQSPATLSLSPGERATLSCRASQSVSSFLAWYQQKPGQAPRLLIYDASNRATGIPARFSGSGSGTDFTLTISSLEPEDFAVYYCQQRSNWPLTFGPGTKVDIKR | binds | – |
| hTRAILR2-hPSMA bispecific antibody E11-CH1-PI115VH antibody (bispecific antibody, IgG4, domain: constant region; The heavy chain is E11 VH, an IgG4 CH1 linker and PI115 VH, followed by the constant region of the vector; All four light chains carry E11 VL) heavy: not shown VL: EIVLTQSPATLSLSPGERATLSCRASQSVSSFLAWYQQKPGQAPRLLIYDASNRATGIPARFSGSGSGTDFTLTISSLEPEDFAVYYCQQRSNWPLTFGPGTKVDIKR | – | binds |
| hTRAILR2-hPSMA bispecific antibody E11-ML-PI101VH antibody (bispecific antibody, IgM, domain: constant region; All four light chains carry E11 VL) heavy: not shown VL: EIVLTQSPATLSLSPGERATLSCRASQSVSSFLAWYQQKPGQAPRLLIYDASNRATGIPARFSGSGSGTDFTLTISSLEPEDFAVYYCQQRSNWPLTFGPGTKVDIKR | – | binds |
| PI108 phage clone (scFv displayed on M13 phage) (scFv, V domains shown, Tested as an scFv on M13 phage (phagemid pCANTAB 5E)) VH: QVQLVQSGAEVKKPGASVKVSCKASGYTFTTYDINWVRQATGQGLEWMGWMNPNNGYTGYAQKFQGRVTMTRNTSISTAYMELTSLRSEDTAVYYCARTNWVYWYFDLWGRGTLVTVSS VL: EIVLTQSPATLSLSPGERATLSCRASQSVSSFLAWYQQKPGQAPRLLIYDASNRATGIPARFSGSGSGTDFTLTISSLEPEDFAVYYCQQRSNWPLTFGPGTKVDIKR | binds | – |
| PI101 phage clone (scFv displayed on M13 phage) (scFv, V domains shown, Tested as an scFv on M13 phage (phagemid pCANTAB 5E)) VH: EVQLVQSGAEVKKPGASVKVSCKASGYNLATYDINWVRQATGQGLEWMGWMNPNSGYTGYAQKFQGRVTMTRDTSINTAYMELSSLRSEDTAVYYCARTNWVYWYFDLWGRGTLVTVSS VL: EIVLTQSPATLSLSPGERATLSCRASQSVSSFLAWYQQKPGQAPRLLIYDASNRATGIPARFSGSGSGTDFTLTISSLEPEDFAVYYCQQRSNWPLTFGPGTKVDIKR | binds | – |
| hTRAILR2-hPSMA bispecific antibody E11-CH1-PI108VH antibody (bispecific antibody, IgG4, domain: constant region; The heavy chain is E11 VH, an IgG4 CH1 linker and PI108 VH, followed by the constant region of the vector; All four light chains carry E11 VL) heavy: not shown VL: EIVLTQSPATLSLSPGERATLSCRASQSVSSFLAWYQQKPGQAPRLLIYDASNRATGIPARFSGSGSGTDFTLTISSLEPEDFAVYYCQQRSNWPLTFGPGTKVDIKR | – | binds |
| hTRAILR2-hPSMA bispecific antibody E11-CH1-PL223VH antibody (bispecific antibody, IgG4, domain: constant region; The heavy chain is E11 VH, an IgG4 CH1 linker and PL223 VH, followed by the constant region of the vector; All four light chains carry E11 VL; also called E11-CHI-PL223VH) heavy: not shown VL: EIVLTQSPATLSLSPGERATLSCRASQSVSSFLAWYQQKPGQAPRLLIYDASNRATGIPARFSGSGSGTDFTLTISSLEPEDFAVYYCQQRSNWPLTFGPGTKVDIKR | – | binds |
| PI127 phage clone (scFv displayed on M13 phage) (scFv, V domains shown, Tested as an scFv on M13 phage (phagemid pCANTAB 5E)) VH: QVQLVQSGAEVKKPGASVKVSCKASGYTFTTYDINWVRQATGQGLEWLGWMNPNNGYTGYAQKFQGRVTMTRNTSIGTAYMELNSLRSEDTAVYYCARTNWVYWYFDLWGRGTLVTVSS VL: EIVLTQSPATLSLSPGERATLSCRASQSVSSFLAWYQQKPGQAPRLLIYDASNRATGIPARFSGSGSGTDFTLTISSLEPEDFAVYYCQQRSNWPLTFGPGTKVDIKR | binds | – |
| hTRAILR2-hPSMA bispecific antibody E11-CH1-PI143VH antibody (bispecific antibody, IgG4, domain: constant region; The heavy chain is E11 VH, an IgG4 CH1 linker and PI143 VH, followed by the constant region of the vector; All four light chains carry E11 VL) heavy: not shown VL: EIVLTQSPATLSLSPGERATLSCRASQSVSSFLAWYQQKPGQAPRLLIYDASNRATGIPARFSGSGSGTDFTLTISSLEPEDFAVYYCQQRSNWPLTFGPGTKVDIKR | – | binds |
| PL223 phage clone (scFv displayed on M13 phage) (scFv, V domains shown, Tested as an scFv on M13 phage (phagemid pCANTAB 5E)) VH: EVQLVQSGAEVKKPGASVKVSCKASGYTFTTYDINWVRQATGQGLEWMGWMNPNNGYTGYAQKFQGRVTMTRNTSISTAYMELSSLRSEDTAVYYCARTNWVYWYFDLWGRGTMVTVSS VL: EIVLTQSPATLSLSPGERATLSCRASQSVSSFLAWYQQKPGQAPRLLIYDASNRATGIPARFSGSGSGTDFTLTISSLEPEDFAVYYCQQRSNWPLTFGPGTKVDIKR | binds | – |
| PN7 phage clone (scFv displayed on M13 phage) (scFv, V domains shown, Tested as an scFv on M13 phage (phagemid pCANTAB 5E)) VH: EVQLVQSGAEVKKPGASVKVSCKASGYTFTTYDINWVRQATGQGLEWMGWMNPNSGYTGYAQKFQGRVTMTRDTSISTAYMELSSLRSEDTAVYYCARTNWESWYFDLWGRGTLVTVSS VL: EIVLTQSPATLSLSPGERATLSCRASQSVSSFLAWYQQKPGQAPRLLIYDASNRATGIPARFSGSGSGTDFTLTISSLEPEDFAVYYCQQRSNWPLTFGPGTKVDIKR | binds | – |
| PI118 phage clone (scFv displayed on M13 phage) (scFv, V domains shown, Tested as an scFv on M13 phage (phagemid pCANTAB 5E)) VH: QVQLVQSGAEVKKPGASVKVSCKASGYNLTTYDINWVRQATGQGLEWMGWMNPNSGYTGYAQKFQGRVTMTRNTSIDTAYMELSNLRSEDTAVYYCARTNWVYWYFDLWGRGTLVTVSS VL: EIVLTQSPATLSLSPGERATLSCRASQSVSSFLAWYQQKPGQAPRLLIYDASNRATGIPARFSGSGSGTDFTLTISSLEPEDFAVYYCQQRSNWPLTFGPGTKVDIKR | binds | – |
| hTRAILR2-hPSMA bispecific antibody E11-CH1-PI127VH antibody (bispecific antibody, IgG4, domain: constant region; The heavy chain is E11 VH, an IgG4 CH1 linker and PI127 VH, followed by the constant region of the vector; All four light chains carry E11 VL) heavy: not shown VL: EIVLTQSPATLSLSPGERATLSCRASQSVSSFLAWYQQKPGQAPRLLIYDASNRATGIPARFSGSGSGTDFTLTISSLEPEDFAVYYCQQRSNWPLTFGPGTKVDIKR | – | binds |
| PI115 phage clone (scFv displayed on M13 phage) (scFv, V domains shown, Tested as an scFv on M13 phage (phagemid pCANTAB 5E)) VH: EVQLVQSGAEVKKPGASVKVSCKASGYTFTTYDINWVRQATGQGLEWMGWMNPNNGYTGYAQKFQGRVTMTRNTSISTAYMELSSLRSEDTAVYYCARTNWVYWYFDLWGRGTLVTVSS VL: EIVLTQSPATLSLSPGERATLSCRASQSVSSFLAWYQQKPGQAPRLLIYDASNRATGIPARFSGSGSGTDFTLTISSLEPEDFAVYYCQQRSNWPLTFGPGTKVDIKR | binds | – |
| PI143 phage clone (scFv displayed on M13 phage) (scFv, V domains shown, Tested as an scFv on M13 phage (phagemid pCANTAB 5E); also called P1143) VH: QVQLVQSGAEVKKPGASVKVSCKASGYTFTTYDINWVRQATGQGLEWMGWMNPNNGYTGYAQKFQGRVTMTRNTSISTAYMELSSLRSEDTAVYYCARTNWVYWYFDLWGRGTTVTVSS VL: EIVLTQSPATLSLSPGERATLSCRASQSVSSFLAWYQQKPGQAPRLLIYDASNRATGIPARFSGSGSGTDFTLTISSLEPEDFAVYYCQQRSNWPLTFGPGTKVDIKR | binds | – |
| hTRAILR2-hPSMA bispecific antibody E11-CH1-PI118VH antibody (bispecific antibody, IgG4, domain: constant region; The heavy chain is E11 VH, an IgG4 CH1 linker and PI118 VH, followed by the constant region of the vector; All four light chains carry E11 VL) heavy: not shown VL: EIVLTQSPATLSLSPGERATLSCRASQSVSSFLAWYQQKPGQAPRLLIYDASNRATGIPARFSGSGSGTDFTLTISSLEPEDFAVYYCQQRSNWPLTFGPGTKVDIKR | – | binds |
